In paper PMC5737367:

Biological target: Rif1 1709-1916 (UniProt P29539)
Assay: GST pull-down from yeast lysate
Conditions: reference: wild type; sites S731

**Q.** How did the “binding against the reference” value turn out when Rap1 (from UniProt P11938) S731A was run?
**A.** Its value is “weaker”.
